Patent publication US6461832B2, “Method of detecting procarboxypeptidase A and carboxypeptidase A levels in biological fluids” (priority 1997, dated 2002)
Where “and” joins values, the source holds several entries; their conditions need not be identical. Equal entries are not always repeated.

Columns and labels:
carboxypeptidase A (CPA) = biological target: T1, carboxypeptidase A (CPA) (Homo sapiens, UniProt P15085); details: CPA specific inhibitor; reported values (Byers and Wolfenden 1973; Peterson et al. 1976); cited from earlier work
T1 sequence (P15085 111-419): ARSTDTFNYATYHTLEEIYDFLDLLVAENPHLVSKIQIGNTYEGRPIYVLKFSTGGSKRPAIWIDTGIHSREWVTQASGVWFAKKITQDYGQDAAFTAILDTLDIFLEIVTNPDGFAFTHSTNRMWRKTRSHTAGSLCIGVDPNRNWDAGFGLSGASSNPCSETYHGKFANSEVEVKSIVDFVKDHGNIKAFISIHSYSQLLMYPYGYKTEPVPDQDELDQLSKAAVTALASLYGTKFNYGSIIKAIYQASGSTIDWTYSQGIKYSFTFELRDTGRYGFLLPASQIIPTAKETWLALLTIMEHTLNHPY

[1] = test system: procarboxypeptidase A (PCPA) in human serum; assay: Activation of PCPA in human serum with clostripain, total CPA activity; type: biochemical; details: sera from four healthy individuals and one with pancreatitis
Procedure: In the present invention, the protease clostripain was added to activate any PCPA in the biological fluid so that total CPA could be measured.
Approximately 3 mg (500 units) of lyophilized clostripain was dissolved in 1 ml of 10 mM Tris buffer (pH 8.0) along with CaCl2 and Cleland's Reagent at final concentrations of 20 mM and 1 mM, respectively. This mixture was incubated at room temperature for approximately 2 hours. This solution was then added to serum in concentrations ranging from approximately 50 to 500 units of clostripain/ml of serum. One unit was defined as the amount of clostripain which could cleave one micromole of Nα-benzoyl arginine ethyl ester (BAEE) in one minute. Determination of PCPA levels in blood donor samples was performed with 250 units of clostripain per ml serum. The standard serum volume was 0.013 ml serum per ml total solution. This mixture was incubated for five minutes at 37° C., after which time Ellman's Reagent was added at the standard concentration to eliminate clostripain as it quickly derivatizes all sulfhydryl groups in the mixture. From this point, the standard assay as described in Example 2 was followed.

Which Ki (carboxypeptidase A (CPA)) does the source give for `O=C(O)CC(Cc1ccccc1)C(=O)O` (racemic) [α-benzylsuccinic acid] here?
Its Ki is 1000 nM and 1600 nM.

B1: clostripain: protease added to activate PCPA in the biological fluid (protein, UniProt P09870 51-181; P09870 191-526, looked up)
Clostripain light chain: NKNQKVTIMYYCDADNNLEGSLLNDIEEMKTGYKDSPNLNLIALVDRSPRYSSDEKVLGEDFSDTRLYKIEHNKANRLDGKNEFPEISTTSKYEANMGDPEVLKKFIDYCKSNYEADKYVLIMANHGGGAR
Clostripain heavy chain: AICWDDSNLDKNGEADCLYMGEISDHLTEKQSVDLLAFDACLMGTAEVAYQYRPGNGGFSADTLVASSPVVWGPGFKYDKIFDRIKAGGGTNNEDDLTLGGKEQNFDPATITNEQLGALFVEEQRDSTHANGRYDQHLSFYDLKKAESVKRAIDNLAVNLSNENKKSEIEKLRGSGIHTDLMHYFDEYSEGEWVEYPYFDVYDLCEKINKSENFSSKTKDLASNAMNKLNEMIVYSFGDPSNNFKEGKNGLSIFLPNGDKKYSTYYTSTKIPHWTMQSWYNSIDTVKYGLNPYGKLSWCKDGQDPEINKVGNWFELLDSWFDKTNDVTGGVNHYQW
Which “CPA activities after activation, compared with trypsin” value [1] does the source give for B1 here?
Its value is “significantly higher than the maximum values that could be obtained when using trypsin”.

What about the “CPA activity loss at supramaximal concentrations of activating protease” value ([1]; unlike trypsin) of the same molecule?
Its value is “only slight CPA activity losses”.
